Where a chain is given by its changes, count along the chain named. Numbers in names are those of the source. Read-outs that look alike come from different tables or passages of the source. Each block holds one binder with its values, some of them ahead of it.
Columns and labels:
[1] = target: T1, STAT1-GFP wild type, P42224; test: raster image correlation spectroscopy (RICS), molecular brightness; living U3A cells, unstimulated, 37°C; cytoplasm and nucleus; brightness of STAT1-GFP compared with monomeric GFP; conditions: remark: other sources report otherwise
T1 chain: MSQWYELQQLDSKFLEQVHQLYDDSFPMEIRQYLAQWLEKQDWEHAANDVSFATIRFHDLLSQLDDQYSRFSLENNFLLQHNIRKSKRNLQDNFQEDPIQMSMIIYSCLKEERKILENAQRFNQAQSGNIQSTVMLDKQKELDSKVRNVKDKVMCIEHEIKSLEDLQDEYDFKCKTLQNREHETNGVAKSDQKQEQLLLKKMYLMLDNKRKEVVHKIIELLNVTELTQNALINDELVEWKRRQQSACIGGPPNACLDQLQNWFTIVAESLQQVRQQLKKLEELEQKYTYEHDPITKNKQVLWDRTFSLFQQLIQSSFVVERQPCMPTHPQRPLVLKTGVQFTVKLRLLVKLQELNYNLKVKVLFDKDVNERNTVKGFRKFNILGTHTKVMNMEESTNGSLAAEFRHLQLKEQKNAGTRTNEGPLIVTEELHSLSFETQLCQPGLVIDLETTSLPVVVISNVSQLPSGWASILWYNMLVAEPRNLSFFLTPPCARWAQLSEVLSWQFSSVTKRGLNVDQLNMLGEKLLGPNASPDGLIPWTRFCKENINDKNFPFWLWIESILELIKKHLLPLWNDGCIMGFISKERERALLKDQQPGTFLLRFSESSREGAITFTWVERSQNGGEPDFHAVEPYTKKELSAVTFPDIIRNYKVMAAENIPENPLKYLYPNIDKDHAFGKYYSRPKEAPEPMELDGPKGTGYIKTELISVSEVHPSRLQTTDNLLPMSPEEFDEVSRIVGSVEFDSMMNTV

[2] = target: T1, STAT1-GFP wild type, P42224; test: raster image correlation spectroscopy (RICS), molecular brightness; living U3A cells after IFNγ (1 U/μl, 1 h), 37°C; nucleus; brightness as fold of cytoplasmic STAT1 WT; dimers to tetramers; conditions: remark: other sources report otherwise
[3] = target: T1, STAT1-GFP wild type, P42224; test: raster image correlation spectroscopy (RICS), molecular brightness; living U3A cells after IFNγ (1 U/μl, 1 h), 37°C; cytoplasm; brightness as fold of cytoplasmic STAT1 WT; conditions: remark: other sources report otherwise
[4] = target: the molecule itself; test: raster image correlation spectroscopy (RICS), molecular brightness; living U3A cells after IFNγ (1 U/μl, 1 h), 37°C; nucleus; brightness as fold of cytoplasmic STAT1 WT; dimers to tetramers
[5] = target: the molecule itself; test: raster image correlation spectroscopy (RICS), molecular brightness; living U3A cells after IFNγ (1 U/μl, 1 h), 37°C; cytoplasm; brightness as fold of cytoplasmic STAT1 WT
[6] = target: the molecule itself; test: raster image correlation spectroscopy (RICS), molecular brightness; living U3A cells after IFNγ (1 U/μl, 1 h), 37°C; nucleus; brightness as fold of cytoplasmic STAT1 WT; dimers to tetramers; remark: listed apart in the source

stoichiometry N [1]: 2
relative brightness (fold of cytoplasmic STAT1 WT) [2]: 1.32 A.U.
stoichiometry N [2]: 4
relative brightness (fold of cytoplasmic STAT1 WT) [3]: 1 A.U.
B1: STAT1-GFP wild type, P42224 1-750 (natural protein)
chain: T1 chain

B2: STAT1-GFP N574I (natural protein, UniProt P42224 1-750, looked up)
chain: T1 chain with N574I
notes: STAT1 with the patient gain-of-function mutation N574I (linker domain); Mutation reported in patients; also called STAT1N574I-eGFP; N571I (as printed in some places); source: measured in living cells; not shown: eGFP, C-terminal, kept
increase of nuclear brightness compared to cytoplasmic STAT1 WT [4]: 7%
stoichiometry N [4]: 4
relative brightness (fold of cytoplasmic STAT1 WT) [5]: 0.74 A.U.

B3: STAT1-GFP E411A (natural protein, UniProt P42224 1-750, looked up)
chain: T1 chain with E411A
notes: Artificial mutation, not reported in patients; also called STAT1E411A-eGFP; source: measured in living cells; not shown: eGFP, C-terminal, kept
stoichiometry N [4]: 2

B4: STAT1-GFP T419R (natural protein, UniProt P42224 1-750, looked up)
chain: T1 chain with T419R
notes: Mutation reported in patients; also called STAT1T419R-eGFP; source: measured in living cells; not shown: eGFP, C-terminal, kept
stoichiometry N [6]: 2

B5: STAT1-GFP R274W (natural protein, UniProt P42224 1-750, looked up)
chain: T1 chain with R274W
notes: STAT1 with the patient gain-of-function mutation R274W (coiled-coil domain); Mutation reported in patients; also called STAT1R274W-eGFP; source: measured in living cells; not shown: eGFP, C-terminal, kept
increase of nuclear brightness compared to cytoplasmic STAT1 WT [4]: 17%
stoichiometry N [4]: 4

B6: STAT1-GFP Y701A (natural protein, UniProt P42224 1-750, looked up)
chain: T1 chain with Y701A
notes: Non-clinical control; also called STAT1Y701A-eGFP; source: measured in living cells; not shown: eGFP, C-terminal, kept
stoichiometry N [4]: 2

B7: STAT1-GFP R321S (natural protein, UniProt P42224 1-750, looked up)
chain: T1 chain with R321S
notes: Mutation reported in patients; also called STAT1R321S-eGFP; source: measured in living cells; not shown: eGFP, C-terminal, kept
increase of nuclear brightness compared to cytoplasmic STAT1 WT [4]: 11%
stoichiometry N [4]: 4
relative brightness (fold of cytoplasmic STAT1 WT) [5]: 0.69 A.U.
